Experimental data taken from article PMC7283332 (2020).
Where a chain is given by its changes, count along the chain named. Numbers in names are those of the source.

B1: ULBP2.R81W, monomeric α1α2 domain (domain or fragment)
chain: DPHSLCYDITVIPKFRPGPRWCAVQGQVDEKTFLHYDCGNKTVTPVSPLGKKLNVTTAWKAQNPVLREVVDILTEQLWDIQLENYTPKEPLTLQARMSCEQKAEGHSSGSWQFSFDGQIFLLFDSEKRMWTTVHPGARKMKEKWENDKVVAMSFHYFSMGDCIGWLEDFLMGMDSTLEPSAGAP
B2: ULBP2 α1α2 domain, C-terminal 6×-His (domain or fragment)
chain: B1 chain with W78R
B3: Fc-iNKG2D.YA (Fc fusion)
chain: FLNSLFNQEVQIPLTESYCGPCPKNWICYKNNCYQFFDESKNWYESQASCMSQNASLLKVYSKEDQDLLKLVKSAHWMGLVHIPTNGSWQWEDGSILSPNLLTIIEMQKGDCALYASSFKGYIENCSTPNTYICMQRTV
modifications: biotinylated only in the ELISA on coated ligand-Fc proteins

Assays:
Experiment in all cases: BLI
Fc-wtNKG2D = target: T1, Fc-wtNKG2D (human, UniProt P26718 78-216)
T1 chain: B3 chain with A75Y

Fc-iNKG2D.YA = target: B3
[1] = target: ULBP2.S3 (U2S3), monomeric α1α2 domain variant (human, UniProt Q9BZM5)

Binder	Kd (Fc-wtNKG2D) [nM]	Kd (Fc-iNKG2D.YA) [nM]	Kd [1] [nM]
B1	8	3600	
B2	350		
B3			28
